For data set [1], the system named is T1, C34D1.1 (C34D1.1) (Caenorhabditis elegans).
T1 sequence: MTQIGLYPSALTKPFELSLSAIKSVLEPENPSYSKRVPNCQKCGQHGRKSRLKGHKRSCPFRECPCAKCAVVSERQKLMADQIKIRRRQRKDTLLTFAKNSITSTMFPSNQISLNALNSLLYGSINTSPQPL

For data set [2], the target named is dmd-4 (C27C12.6) (Caenorhabditis elegans) (UniProt Q18248).
In data set [3] the target is dmd-5 (F10C1.5) (Caenorhabditis elegans) (UniProt Q19291).
Data set [4] addresses T2, mab-3 (Y53C12B.5) (Caenorhabditis elegans) (UniProt O18214).
T2 sequence: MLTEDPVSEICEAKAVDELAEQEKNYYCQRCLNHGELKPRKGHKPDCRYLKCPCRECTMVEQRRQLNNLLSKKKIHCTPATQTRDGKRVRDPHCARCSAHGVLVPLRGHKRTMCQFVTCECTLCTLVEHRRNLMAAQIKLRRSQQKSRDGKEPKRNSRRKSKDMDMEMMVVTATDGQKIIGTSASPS

Data set [5] deals with T3, dmd-6 (F13G11.1) (Caenorhabditis elegans) (UniProt O62159).
T3 sequence: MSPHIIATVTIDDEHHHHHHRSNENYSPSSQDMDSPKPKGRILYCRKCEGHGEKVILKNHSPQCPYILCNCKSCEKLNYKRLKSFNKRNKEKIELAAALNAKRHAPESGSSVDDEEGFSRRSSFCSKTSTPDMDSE

Data set [6] deals with T4, T22H9.4 (T22H9.4) (Caenorhabditis elegans) (UniProt Q9TXN8).
T4 sequence: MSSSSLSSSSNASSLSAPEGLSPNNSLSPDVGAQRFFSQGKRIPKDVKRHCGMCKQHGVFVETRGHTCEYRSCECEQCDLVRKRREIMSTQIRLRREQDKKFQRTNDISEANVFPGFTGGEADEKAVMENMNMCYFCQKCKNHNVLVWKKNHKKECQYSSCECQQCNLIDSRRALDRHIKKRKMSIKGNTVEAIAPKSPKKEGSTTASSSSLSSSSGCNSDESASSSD

The target in data set [7] is T5, Y48G1C.6 (Y48G1C.6) (Caenorhabditis elegans) (UniProt Q9N3P2).
T5 sequence: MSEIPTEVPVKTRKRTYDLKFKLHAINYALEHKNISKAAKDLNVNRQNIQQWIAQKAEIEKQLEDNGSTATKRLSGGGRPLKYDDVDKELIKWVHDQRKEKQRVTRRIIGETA

Chain of dmd-5 (F10C1.5) (Caenorhabditis elegans) (Q19291 1-125): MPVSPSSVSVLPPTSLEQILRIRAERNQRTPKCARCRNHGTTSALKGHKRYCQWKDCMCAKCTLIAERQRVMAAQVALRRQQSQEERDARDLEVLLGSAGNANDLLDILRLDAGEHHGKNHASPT
Chain of dmd-4 (C27C12.6) (Caenorhabditis elegans) (Q18248 1-114): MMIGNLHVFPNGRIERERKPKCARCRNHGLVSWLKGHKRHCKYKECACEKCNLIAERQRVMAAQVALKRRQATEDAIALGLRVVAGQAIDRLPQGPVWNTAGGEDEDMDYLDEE

For “AAACATTT (double strand) [8-mer AAACATTT]”, in data set [1], the binding signal (PBM E-score (-0.5 to 0.5)) amounted to 0.473.

For the sequence “TGATACAA (double strand) [8-mer TGATACAA]”, in data set [2], the binding signal (PBM E-score (-0.5 to 0.5)) worked out at 0.489.

“GAAACATA (double strand) [8-mer GAAACATA]” displayed a binding signal (PBM E-score (-0.5 to 0.5)) in data set [1] of 0.488.

With “ATGATACA (double strand) [8-mer ATGATACA]”, the binding signal (PBM E-score (-0.5 to 0.5)) in data set [2] is 0.485.

As to “TAGATACA (double strand) [8-mer TAGATACA]”, the binding signal (PBM E-score (-0.5 to 0.5)) in data set [2] was found to be 0.491.

Regarding “ATGTTACA (double strand) [8-mer ATGTTACA]”, the binding signal (PBM E-score (-0.5 to 0.5)) in data set [3] is 0.475.

On to “GATGTTGC (double strand) [8-mer GATGTTGC]”, for which, in data set [4], the binding signal (PBM E-score (-0.5 to 0.5)) is 0.495.

“TGTTTCAA (double strand) [8-mer TGTTTCAA]” yielded a binding signal (PBM E-score (-0.5 to 0.5)) in data set [1] of 0.485.

With “ATTGTATC (double strand) [8-mer ATTGTATC]”, the values for the binding signal (PBM E-score (-0.5 to 0.5)) in data set [2] and in data set [3] were 0.491 and 0.486, respectively.

Take “AAAATTTA (double strand) [8-mer AAAATTTA]”: in data set [5], the binding signal (PBM E-score (-0.5 to 0.5)) is 0.471.

Turning to “CATGTATC (double strand) [8-mer CATGTATC]”, the binding signal (PBM E-score (-0.5 to 0.5)) in data set [2] is 0.483.

In turn, “AAAAAGTT (double strand) [8-mer AAAAAGTT]” registered a binding signal (PBM E-score (-0.5 to 0.5)) in data set [5] of 0.484.

Turning to “TGTCGAAA (double strand) [8-mer TGTCGAAA]”, the binding signal (PBM E-score (-0.5 to 0.5)) in data set [6] came to 0.495.

Turning to “TCGCAACA (double strand) [8-mer TCGCAACA]”, in data set [4], the binding signal (PBM E-score (-0.5 to 0.5)) amounted to 0.499.

“ATGTATCA (double strand) [8-mer ATGTATCA]”: the binding signal (PBM E-score (-0.5 to 0.5)) in data set [2] turned out to be 0.493; in data set [3], 0.486.

“ATTGCAAC (double strand) [8-mer ATTGCAAC]” gave a binding signal (PBM E-score (-0.5 to 0.5)) in data set [6] of 0.493.

In data set [2], “GATACATA (double strand) [8-mer GATACATA]” displayed a binding signal (PBM E-score (-0.5 to 0.5)) of 0.482.

In data set [4], “CCGCAACA (double strand) [8-mer CCGCAACA]” registered a binding signal (PBM E-score (-0.5 to 0.5)) of 0.482.

In the case of “CGTTGCAA (double strand) [8-mer CGTTGCAA]”, the binding signal (PBM E-score (-0.5 to 0.5)) in data set [6] was determined as 0.488.

Sequence “TGTTGAAA (double strand) [8-mer TGTTGAAA]” had a binding signal (PBM E-score (-0.5 to 0.5)) in data set [6] of 0.499.

“ACAGTAAC (double strand) [8-mer ACAGTAAC]”: the binding signal (PBM E-score (-0.5 to 0.5)) in data set [3] was found to be 0.482.

In turn, “GCAACATA (double strand) [8-mer GCAACATA]” had a binding signal (PBM E-score (-0.5 to 0.5)) in data set [4] of 0.493.

“CATGTTTC (double strand) [8-mer CATGTTTC]” gave a binding signal (PBM E-score (-0.5 to 0.5)) in data set [1] of 0.469.

In turn, “ATTGTTGC (double strand) [8-mer ATTGTTGC]” displayed a binding signal (PBM E-score (-0.5 to 0.5)) in data set [4] of 0.486.

On to “CTGCAAGA (double strand) [8-mer CTGCAAGA]”, for which the binding signal (PBM E-score (-0.5 to 0.5)) in data set [7] was 0.494.

For the sequence “ATGTTGCC (double strand) [8-mer ATGTTGCC]”, in data set [4], the binding signal (PBM E-score (-0.5 to 0.5)) was determined as 0.477.

Take “GTTGCAAC (double strand) [8-mer GTTGCAAC]”: the binding signal (PBM E-score (-0.5 to 0.5)) in data set [6] came out at 0.489; in data set [4], 0.479.

“ATGCAAGA (double strand) [8-mer ATGCAAGA]” had a binding signal (PBM E-score (-0.5 to 0.5)) in data set [7] of 0.495.

In turn, “CGCAACAA (double strand) [8-mer CGCAACAA]” registered a binding signal (PBM E-score (-0.5 to 0.5)) in data set [4] of 0.487.

Regarding “AAATTTTA (double strand) [8-mer AAATTTTA]”, the binding signal (PBM E-score (-0.5 to 0.5)) in data set [5] is 0.477.

With “TGTTACAA (double strand) [8-mer TGTTACAA]”, the binding signal (PBM E-score (-0.5 to 0.5)) in data set [6] was determined as 0.488; in data set [3] it was 0.484.

For “ACAGTTGC (double strand) [8-mer ACAGTTGC]”, the binding signal (PBM E-score (-0.5 to 0.5)) in data set [3] amounted to 0.489.

The sequence “ATGAAACA (double strand) [8-mer ATGAAACA]” displayed a binding signal (PBM E-score (-0.5 to 0.5)) in data set [1] of 0.486.

“TGGCAACA (double strand) [8-mer TGGCAACA]”: the binding signal (PBM E-score (-0.5 to 0.5)) in data set [4] came to 0.481.

In data set [1], “AGTGTTTC (double strand) [8-mer AGTGTTTC]” registered a binding signal (PBM E-score (-0.5 to 0.5)) of 0.47.

For the sequence “AGATACAT (double strand) [8-mer AGATACAT]”, the binding signal (PBM E-score (-0.5 to 0.5)) in data set [2] stood at 0.492.

With “ATTGTTAC (double strand) [8-mer ATTGTTAC]”, the binding signal (PBM E-score (-0.5 to 0.5)) in data set [3] amounted to 0.476.

Regarding “GTTGAAAA (double strand) [8-mer GTTGAAAA]”, the binding signal (PBM E-score (-0.5 to 0.5)) in data set [6] turned out to be 0.495.

“AATGTATC (double strand) [8-mer AATGTATC]”: the binding signal (PBM E-score (-0.5 to 0.5)) was 0.494 in data set [2] and 0.485 in data set [3].

For the sequence “ACTGTTGC (double strand) [8-mer ACTGTTGC]”, in data set [3], the binding signal (PBM E-score (-0.5 to 0.5)) came out at 0.488.

For the sequence “ACTTGCAG (double strand) [8-mer ACTTGCAG]”, the binding signal (PBM E-score (-0.5 to 0.5)) in data set [7] is 0.494.

With “GTGAAACA (double strand) [8-mer GTGAAACA]”, in data set [1], the binding signal (PBM E-score (-0.5 to 0.5)) was found to be 0.484.

In data set [6], “ATTCAACA (double strand) [8-mer ATTCAACA]” displayed a binding signal (PBM E-score (-0.5 to 0.5)) of 0.49.

“TGAAACAA (double strand) [8-mer TGAAACAA]”: in data set [1], the binding signal (PBM E-score (-0.5 to 0.5)) came out at 0.485.

Sequence “GTTAAAAA (double strand) [8-mer GTTAAAAA]” showed a binding signal (PBM E-score (-0.5 to 0.5)) in data set [6] of 0.494.

Turning to “AAATGTTA (double strand) [8-mer AAATGTTA]”, the binding signal (PBM E-score (-0.5 to 0.5)) in data set [5] was 0.475.

For the sequence “ATGTTGCG (double strand) [8-mer ATGTTGCG]”, the binding signal (PBM E-score (-0.5 to 0.5)) in data set [4] was determined as 0.499.

“ACTGTATC (double strand) [8-mer ACTGTATC]” had a binding signal (PBM E-score (-0.5 to 0.5)) in data set [3] of 0.484.

On to “AAAGTATC (double strand) [8-mer AAAGTATC]”, for which the binding signal (PBM E-score (-0.5 to 0.5)) in data set [2] was 0.492.

As for “ACGCAACA (double strand) [8-mer ACGCAACA]”, the binding signal (PBM E-score (-0.5 to 0.5)) in data set [4] worked out at 0.484.

Sequence “ATTGTTTC (double strand) [8-mer ATTGTTTC]” returned a binding signal (PBM E-score (-0.5 to 0.5)) in data set [1] of 0.487.

As to “ATTGTAAC (double strand) [8-mer ATTGTAAC]”, the binding signal (PBM E-score (-0.5 to 0.5)) in data set [3] came out at 0.481.

Turning to “AAATATTT (double strand) [8-mer AAATATTT]”, the binding signal (PBM E-score (-0.5 to 0.5)) in data set [5] amounted to 0.482.

“AATTGTTA (double strand) [8-mer AATTGTTA]” yielded a binding signal (PBM E-score (-0.5 to 0.5)) in data set [3] of 0.478.

Sequence “ACTTGCAC (double strand) [8-mer ACTTGCAC]” yielded a binding signal (PBM E-score (-0.5 to 0.5)) in data set [7] of 0.495.

In turn, “TGTTAAAA (double strand) [8-mer TGTTAAAA]” yielded a binding signal (PBM E-score (-0.5 to 0.5)) in data set [6] of 0.496.

In data set [6], “ATTTTAAC (double strand) [8-mer ATTTTAAC]” had a binding signal (PBM E-score (-0.5 to 0.5)) of 0.491.

As to “ATCTTGCA (double strand) [8-mer ATCTTGCA]”, the binding signal (PBM E-score (-0.5 to 0.5)) in data set [7] amounted to 0.495.

On to “ATTTCAAC (double strand) [8-mer ATTTCAAC]”, for which the binding signal (PBM E-score (-0.5 to 0.5)) in data set [6] came out at 0.497.

In the case of “CCTGCAAG (double strand) [8-mer CCTGCAAG]”, the binding signal (PBM E-score (-0.5 to 0.5)) in data set [7] was 0.493.

With “ATAGTTTC (double strand) [8-mer ATAGTTTC]”, the binding signal (PBM E-score (-0.5 to 0.5)) in data set [1] came to 0.47.

Turning to “TGTAACAA (double strand) [8-mer TGTAACAA]”, the binding signal (PBM E-score (-0.5 to 0.5)) was found to be 0.483 in data set [2] and 0.484 in data set [3].

As to “GTTGCAAA (double strand) [8-mer GTTGCAAA]”, the binding signal (PBM E-score (-0.5 to 0.5)) in data set [6] amounted to 0.493.

“TGTAGAAA (double strand) [8-mer TGTAGAAA]” returned a binding signal (PBM E-score (-0.5 to 0.5)) in data set [6] of 0.489.

“AAGATACA (double strand) [8-mer AAGATACA]” came in with a binding signal (PBM E-score (-0.5 to 0.5)) in data set [2] of 0.477.

Sequence “GCATGCAA (double strand) [8-mer GCATGCAA]” returned a binding signal (PBM E-score (-0.5 to 0.5)) in data set [7] of 0.496.

As for “AAAAGTTA (double strand) [8-mer AAAAGTTA]”, the binding signal (PBM E-score (-0.5 to 0.5)) in data set [5] was determined as 0.486.

With “ACTGTAAC (double strand) [8-mer ACTGTAAC]”, the binding signal (PBM E-score (-0.5 to 0.5)) in data set [3] turned out to be 0.49.

With “TGTATCAA (double strand) [8-mer TGTATCAA]”, the binding signal (PBM E-score (-0.5 to 0.5)) in data set [2] was 0.496; in data set [3], 0.49.

“AAATTTAT (double strand) [8-mer AAATTTAT]” came in with a binding signal (PBM E-score (-0.5 to 0.5)) in data set [5] of 0.479.

Regarding “ATGCAACA (double strand) [8-mer ATGCAACA]”, the binding signal (PBM E-score (-0.5 to 0.5)) in data set [4] came out at 0.482.

These data come from article PMC4434323.
